From the supplement of paper PMC10598134
± gives the standard deviation.

Assay: collision cross section of modified peptide (TIMS, N2, iRT-aligned); higher = larger / more extended gas-phase ion
Procedure: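 1/K0 was aligned run-wise to spiked iRT peptides and converted to CCS in N2 (Mason-Schamp). Values are the mean of 1-3 technical replicates for the most abundant feature at each charge state.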

[1] = charge state: 2, modification: Citrullination (R)
[2] = charge state: 2, modification: Acetyl (K)
[3] = charge state: 3, modification: Trimethyl (K)
[4] = charge state: 2, modification: Trimethyl (K)
[5] = charge state: 2, modification: Methyl (R)
[6] = charge state: 3, modification: Methyl (R)
[7] = charge state: 2, modification: Glutarylation
[8] = charge state: 3, modification: Glutarylation
[9] = charge state: 2, modification: hydroxyisobutyryl
[10] = charge state: 3, modification: hydroxyisobutyryl
[11] = charge state: 2, modification: Malonyl
[12] = charge state: 3, modification: Malonyl
[13] = charge state: 2, modification: Butyryl
[14] = charge state: 3, modification: Butyryl
[15] = charge state: 2, modification: Crotonyl
[16] = charge state: 3, modification: Crotonyl
[17] = charge state: 2, modification: GlyGly (K)
[18] = charge state: 3, modification: GlyGly (K)
[19] = charge state: 2, modification: Nitro (Y)
[20] = charge state: 2, modification: HexNAc (ST)
[21] = charge state: 3, modification: Acetyl (K)
[22] = charge state: 2, modification: Succinyl
[23] = charge state: 3, modification: Succinyl
[24] = charge state: 2, modification: Methyl (K)
[25] = charge state: 3, modification: Methyl (K)

Q: Which collision cross section [1] does the source give for “SGATAGAAGGRGK [_SGATAGAAGGR(Citrullination (R))GK_]” here?
A: 331.61 ± 0.28 Å²

Q: With ITGKNQVTATK [_ITGK(Acetyl (K))NQVTATK_] as the sequence, how does the collision cross section [2] read?
A: 365.02 ± 0.94 Å²

Q: With “SLEEEGAAHSGKR [_SLEEEGAAHSGK(Trimethyl (K))R_]” as the sequence, how does the collision cross section [3] read?
A: 465.19 ± 1.5 Å²

Q: Which collision cross section [4] does the source give for “TTGFYSGFSEVAEKR [_TTGFYSGFSEVAEK(Trimethyl (K))R_]” here?
A: 459.26 Å²

Q: And the collision cross section [3]?
A: 508.85 ± 1.6 Å²

Q: Which collision cross section (charge state: 2, modification: Propionyl) does the source give for TLDEILQEKK [_TLDEILQEK(Propionyl)K_] here?
A: 380.38 Å²

Q: What does the source list for “VEPIHAVVLPRGK [_VEPIHAVVLPR(Methyl (R))GK_]”?
A: collision cross section [5]: 424.97 ± 1 Å²; collision cross section [6]: 489.93 ± 2.2 Å²

Q: Which collision cross section [7] does the source give for “DTPTSAGPNSFNKGK [_DTPTSAGPNSFNK(Gluratylation)GK_]” here?
A: 415.83 ± 1.8 Å²

Q: And the collision cross section [8]?
A: 444.87 ± 1.9 Å²

Q: What does the source list for “DYSSGFGGKYGVQADR [_DYSSGFGGK(Trimethyl (K))YGVQADR_]”?
A: collision cross section [4]: 437.78 ± 0.016 Å²; collision cross section [3]: 486.86 ± 1.8 Å²

Q: With “ASDTSSETVFGKR [_ASDTSSETVFGK(Trimethyl (K))R_]” as the sequence, how does the collision cross section [4] read?
A: 414.52 ± 0.6 Å²

Q: What about the collision cross section [3] of the same sequence?
A: 471.76 ± 2.7 Å²

Q: Which collision cross section [9] does the source give for “STGLELETPSLVPVKK [_STGLELETPSLVPVK(hydroxyisobutyryl)K_]” here?
A: 440.07 ± 0.82 Å²

Q: And the collision cross section [10]?
A: 511.71 ± 25 Å²

Q: For “GEVGAGAGPGAQAGPSAKR [_GEVGAGAGPGAQAGPSAK(Formyl)R_]”, which collision cross section (charge state: 2, modification: Formyl) is on record?
A: 415.62 ± 0.18 Å²

Q: And the collision cross section (charge state: 3, modification: Formyl)?
A: 470.58 ± 2.9 Å²

Q: For “PRLPATGTFK [_PR(Citrullination (R))LPATGTFK_]”, which collision cross section [1] is on record?
A: 351.67 ± 5.4 Å²

Q: Which collision cross section [9] does the source give for “DASTLQSQKAEGTGDAK [_DASTLQSQK(hydroxyisobutyryl)AEGTGDAK_]” here?
A: 441.13 ± 0.33 Å²

Q: And the collision cross section [10]?
A: 514.99 ± 2.1 Å²

Q: For “VGLQVVAVKAPGFGDNR [_VGLQVVAVK(Malonyl)APGFGDNR_]”, which collision cross section [11] is on record?
A: 445.13 ± 1 Å²

Q: What about the collision cross section [12] of the same sequence?
A: 541.36 ± 0.027 Å²

Q: Which collision cross section [13] does the source give for “IPQEKCILQTDVK [_IPQEK(Butyryl)CILQTDVK_]” here?
A: 436.84 ± 0.53 Å²

Q: What about the collision cross section [14] of the same sequence?
A: 487.47 ± 3.3 Å²

Q: For “SLEEEGAAHSGKR [_SLEEEGAAHSGK(Crotonyl)R_]”, which collision cross section [15] is on record?
A: 420.35 ± 1.1 Å²

Q: What about the collision cross section [16] of the same sequence?
A: 486.66 ± 11 Å²

Q: For “SLEEEGAAHSGKR [_SLEEEGAAHSGK(GlyGly (K))R_]”, which collision cross section [17] is on record?
A: 418.89 ± 1.9 Å²

Q: What about the collision cross section [18] of the same sequence?
A: 473.02 ± 0.33 Å²

Q: Which collision cross section [11] does the source give for VETTVTSLKTK [_VETTVTSLK(Malonyl)TK_] here?
A: 384.89 ± 0.011 Å²

Q: Which collision cross section [13] does the source give for “ISSNFSSIIAEKLR [_ISSNFSSIIAEK(Butyryl)LR_]” here?
A: 436.86 ± 0.55 Å²

Q: Which collision cross section [5] does the source give for PLRAASPFR [_PLR(Methyl (R))AASPFR_] here?
A: 351.73 ± 0.9 Å²

Q: What about the collision cross section [6] of the same sequence?
A: 447.48 ± 3.2 Å²

Q: Which collision cross section [14] does the source give for “TQDQISNIKYHEEFEK [_TQDQISNIK(Butyryl)YHEEFEK_]” here?
A: 559.77 ± 1.1 Å²

Q: For “PSVGSQSNQAGQGKR [_PSVGSQSNQAGQGK(Malonyl)R_]”, which collision cross section [11] is on record?
A: 406.87 ± 1.8 Å²

Q: What about the collision cross section [12] of the same sequence?
A: 446.38 Å²

Q: Which collision cross section [4] does the source give for “SGNLTEDDKHNNAK [_SGNLTEDDK(Trimethyl (K))HNNAK_]” here?
A: 419.32 ± 0.75 Å²

Q: And the collision cross section [3]?
A: 469.66 ± 1.5 Å²

Q: For DLATVYVDVLK [_DLATVY(Nitro (Y))VDVLK_], which collision cross section [19] is on record?
A: 387.27 ± 0.74 Å²

Q: Which results are given for LSEHATAPTR [_LSEHATAPT(HexNAc (ST))R_]?
A: collision cross section [20]: 370.75 ± 0.68 Å²; collision cross section (charge state: 3, modification: HexNAc (ST)): 450.64 ± 0.17 Å²

Q: Which collision cross section [15] does the source give for SGFGKFER [_SGFGK(Crotonyl)FER_] here?
A: 337.57 ± 1.3 Å²

Q: What does the source list for SPDEAYAIAKK [_SPDEAYAIAK(Acetyl (K))K_]?
A: collision cross section [2]: 369.21 ± 0.94 Å²; collision cross section [21]: 447.3 ± 0.6 Å²

Q: With “LQDVSGQLSSSKK [_LQDVSGQLSSSK(Crotonyl)K_]” as the sequence, how does the collision cross section [15] read?
A: 402.23 ± 0.9 Å²

Q: And the collision cross section [16]?
A: 469.03 ± 3.7 Å²

Q: With “DSSPTTNSKLSALQR [_DSSPTTNSK(Trimethyl (K))LSALQR_]” as the sequence, how does the collision cross section [3] read?
A: 473.36 ± 2.4 Å²

Q: With VETFSGVYK [_VETFSGVY(Nitro (Y))K_] as the sequence, how does the collision cross section [19] read?
A: 348.3 ± 0.55 Å²

Q: Which collision cross section [20] does the source give for “VGADGTVFATR [_VGADGTVFAT(HexNAc (ST))R_]” here?
A: 366.62 ± 0.59 Å²

Q: What does the source list for “AEGYEVAHGGR [_AEGY(Phospho (Y))EVAHGGR_]”?
A: collision cross section (charge state: 2, modification: Phospho (Y)): 370.65 ± 0.064 Å²; collision cross section (charge state: 3, modification: Phospho (Y)): 440.52 Å²

Q: Which collision cross section [4] does the source give for “DLSTVEALQNLKNLK [_DLSTVEALQNLK(Trimethyl (K))NLK_]” here?
A: 478.82 ± 1.1 Å²

Q: What about the collision cross section [3] of the same sequence?
A: 501.71 ± 2.5 Å²

Q: For “AAHGRGALAEAAR [_AAHGR(Methyl (R))GALAEAAR_]”, which collision cross section [5] is on record?
A: 401.51 ± 8.3 Å²

Q: What about the collision cross section [6] of the same sequence?
A: 469.45 ± 1.5 Å²

Q: For “VTLEVGKVIQQGR [_VTLEVGK(Succinyl)VIQQGR_]”, which collision cross section [22] is on record?
A: 412.33 ± 0.54 Å²

Q: And the collision cross section [23]?
A: 481.23 ± 2 Å²

Q: What does the source list for “TEVLSPNSKVESK [_TEVLSPNSK(Succinyl)VESK_]”?
A: collision cross section [22]: 402.26 ± 0.79 Å²; collision cross section [23]: 458.68 ± 13 Å²

Q: Which collision cross section [5] does the source give for VRLQTTLR [_VR(Methyl (R))LQTTLR_] here?
A: 349.69 ± 0.95 Å²

Q: What about the collision cross section [6] of the same sequence?
A: 439.94 ± 4.3 Å²

Q: With “SLIGKVDGTSHVTGK [_SLIGKVDGT(HexNAc (ST))SHVTGK_]” as the sequence, how does the collision cross section [20] read?
A: 438.41 Å²

Q: For “ITESVAETAQTIKK [_ITESVAETAQTIK(GlyGly (K))K_]”, which collision cross section [17] is on record?
A: 453.63 ± 0.95 Å²

Q: And the collision cross section [18]?
A: 514.8 ± 1.1 Å²

Q: Which collision cross section (charge state: 2, modification: Hydroxyproline) does the source give for “GPPGPAGPSGESR [_GPP(Hydroxyproline)GPAGPSGESR_]” here?
A: 344.62 ± 1.9 Å²

Q: Which results are given for “LFVGGIKEDTEEHHLR [_LFVGGIK(Gluratylation)EDTEEHHLR_]”?
A: collision cross section [7]: 501.63 ± 1.9 Å²; collision cross section [8]: 544.37 ± 0.97 Å²

Q: With IQQELQTAKK [_IQQELQTAK(Biotin)K_] as the sequence, how does the collision cross section (charge state: 2, modification: Biotin) read?
A: 397.29 ± 2.2 Å²

Q: And the collision cross section (charge state: 3, modification: Biotin)?
A: 468.38 ± 0.34 Å²

Q: With TTEETSKPK [_TTEETSK(Butyryl)PK_] as the sequence, how does the collision cross section [13] read?
A: 338.9 ± 1.2 Å²

Q: With “VGIDTPDIDIHGPEGKLK [_VGIDTPDIDIHGPEGK(Butyryl)LK_]” as the sequence, how does the collision cross section [13] read?
A: 496.6 ± 1 Å²

Q: What about the collision cross section [14] of the same sequence?
A: 542.04 ± 1.1 Å²

Q: Which collision cross section [24] does the source give for SPDEAYAIAKK [_SPDEAYAIAK(Methyl (K))K_] here?
A: 372.23 ± 0.47 Å²

Q: What about the collision cross section [25] of the same sequence?
A: 436.75 ± 4.3 Å²

Q: For “VDVEVPDVSLEGPEGKLK [_VDVEVPDVSLEGPEGK(Methyl (K))LK_]”, which collision cross section [24] is on record?
A: 462.48 ± 7.8 Å²

Q: What about the collision cross section [25] of the same sequence?
A: 551.69 ± 1.3 Å²

Q: Which collision cross section [19] does the source give for SFEDIHQYR [_SFEDIHQY(Nitro (Y))R_] here?
A: 368.15 ± 0.17 Å²

Q: And the collision cross section (charge state: 3, modification: Nitro (Y))?
A: 453.82 ± 1.2 Å²

Q: For “IVEKYGYTHLSAGELLR [_IVEK(Acetyl (K))YGYTHLSAGELLR_]”, which collision cross section [21] is on record?
A: 562.4 ± 1.8 Å²

Q: Which collision cross section [1] does the source give for “GEGGFGGRGGGR [_GEGGFGGR(Citrullination (R))GGGR_]” here?
A: 329.76 ± 0.38 Å²

Q: Which collision cross section [9] does the source give for “TLQKQSVVYGGK [_TLQK(hydroxyisobutyryl)QSVVYGGK_]” here?
A: 398.93 ± 0.3 Å²

Q: What does the source list for “AAQASDLEKIHLDEK [_AAQASDLEK(Crotonyl)IHLDEK_]”?
A: collision cross section [15]: 464.23 ± 0.82 Å²; collision cross section [16]: 499.02 ± 2.2 Å²

Q: What does the source list for TLDEILQEKK [_TLDEILQEK(Dimethyl (K))K_]?
A: collision cross section (charge state: 2, modification: Dimethyl (K)): 379.42 ± 0.37 Å²; collision cross section (charge state: 3, modification: Dimethyl (K)): 430.63 ± 2 Å²

Q: With KYEEIDNAPEER [_K(Crotonyl)YEEIDNAPEER_] as the sequence, how does the collision cross section [15] read?
A: 413.83 ± 0.55 Å²

Q: And the collision cross section [16]?
A: 493.07 ± 1.6 Å²
